According to patent publication US7981997B2, “Growth factor which acts through ErbB-4 RTK” (Yeda Research And Development Co., priority 2000, dated 2011):

Assays:
Type in all cases: binding
IgB-1 (soluble ErbB-1) = molecular target: T1, IgB-1 (soluble ErbB-1) (Homo sapiens, UniProt P00533); assay: Covalent crosslinking of radiolabeled ligands to soluble ErbB-IgG fusion, cell-free; conditions: 125I-labeled ligand, BS3 crosslinking
T1 construct: Recombinant soluble extracellular domains of the four ErbB proteins (denoted IgB-1 through 4); made in house; host or cells: HEK-293 human embryonic kidney cells (conditioned medium)

IgB-2 (soluble ErbB-2) = molecular target: T2, IgB-2 (soluble ErbB-2) (Homo sapiens, UniProt P04626); assay: as above; conditions: 125I-labeled ligand, BS3 crosslinking
T2 construct: Recombinant soluble extracellular domains of the four ErbB proteins (denoted IgB-1 through 4); made in house; host or cells: HEK-293 human embryonic kidney cells (conditioned medium)
Procedure: (§1) The four soluble forms of ErbB proteins, in the form of IgG fusions (denoted IgB-1 through 4), were separately incubated with the indicated radiolabeled growth factors. Where indicated (lower panel), an excess (100-fold) of unlabeled NRG-4 was co-incubated with the labeled ligand. Following 2 hours at 22° C., the covalent crosslinking reagent bis(sulfosuccinimdyl)-suberate (BS^3) was added (1 mM) and 45 minutes later the ligand-receptor complexes were immunoprecipitated with agarose-immobilized protein-A beads. Arrows mark the locations of monomeric (M) and dimeric (D) receptor complexes.
(§2) Growth factors were labeled with Iodogen (Pierce) as described (Karunagaran et al., 1995). Chemical crosslinking to Chinese Hamster Ovary (CHO) cells engineered to express different ErbB combinations have been performed essentially as described (Tzahar et al., 1996). Briefly, radiolabeled ligands (at 100 ng/ml) were incubated for 2 hours with cell monolayers at 4 C. The chemical crosslinking agent BS^3 (1 mM) was then added and the cells were further incubated for 45 minutes at 22 C. Mouse antibodies were first coupled to rabbit anti-mouse IgG and to protein A-Sepharose beads, and then they were incubated with cell extracts for 2 hours at 4 C. Immunoprecipitated complexes were then washed three times with ice-cold SBN buffer (1% NP-40; 150 mM NaCl; 10% Glycerol; 1 mM EGTA, in 50 mM Tris-HCl, pH 7.4; 1 ml per wash) prior to heating (5 minutes at 95 C) in gel sample buffer, resolution by gel electrophoresis, transfer to nitrocellulose and autoradiography. For crosslinking with IgBs, after co-incubation of IgB-containing conditioned media with radiolabeled ligands, complexes were immunoprecipitated directly with Sepharose-protein A beads. For ligand displacement analyses, cell monolayers were washed once with binding buffer, and then incubated for 2 hours at 4 C with radiolabeled […] (5 ng/ml) and various concentrations of unlabeled ligands, as indicated. Non-specific binding was determined in the presence of a 100-fold molar excess of the unlabeled ligani. Cells were then washed, lysed in a solution containing 0.1 M NaOH and 0.1% SDS, and radioactivity determined by use of a gamma counter.
(§3) In the first assay, binding studies in a cell-free system were performed with recombinant soluble forms of all four ErbB proteins. The soluble proteins, denoted IgB-1 through 4, consist of a dimeric fusion between the extracellular domain of the corresponding ErbB and the Fc portion of a human immunoglobulin G (Chen et al., 1996).

IgB-3 (soluble ErbB-3) = molecular target: T3, IgB-3 (soluble ErbB-3) (Homo sapiens, UniProt P21860); assay: as above; conditions: 125I-labeled ligand, BS3 crosslinking
T3 construct: Recombinant soluble extracellular domains of the four ErbB proteins (denoted IgB-1 through 4); made in house; host or cells: HEK-293 human embryonic kidney cells (conditioned medium)
T3 sequence (P21860 20-643 limits assumed): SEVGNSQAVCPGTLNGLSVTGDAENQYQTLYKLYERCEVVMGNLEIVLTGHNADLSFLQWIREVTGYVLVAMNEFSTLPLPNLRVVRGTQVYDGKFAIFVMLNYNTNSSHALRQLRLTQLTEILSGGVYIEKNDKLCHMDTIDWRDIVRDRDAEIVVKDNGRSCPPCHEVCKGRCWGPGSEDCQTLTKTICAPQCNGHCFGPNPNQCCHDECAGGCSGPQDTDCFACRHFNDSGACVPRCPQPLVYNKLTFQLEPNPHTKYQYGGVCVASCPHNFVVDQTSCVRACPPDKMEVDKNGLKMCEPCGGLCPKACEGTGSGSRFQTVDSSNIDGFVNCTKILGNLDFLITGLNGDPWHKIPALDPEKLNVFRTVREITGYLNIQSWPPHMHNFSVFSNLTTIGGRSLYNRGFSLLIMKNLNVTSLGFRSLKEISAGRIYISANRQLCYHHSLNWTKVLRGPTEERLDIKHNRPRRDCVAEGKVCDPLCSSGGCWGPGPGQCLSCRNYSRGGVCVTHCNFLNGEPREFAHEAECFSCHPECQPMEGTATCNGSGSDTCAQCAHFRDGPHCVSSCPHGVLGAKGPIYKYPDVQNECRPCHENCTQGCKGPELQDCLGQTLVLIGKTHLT
Procedure: as §1, §2, §3

IgB-4 (soluble ErbB-4) = molecular target: T4, IgB-4 (soluble ErbB-4) (Homo sapiens, UniProt Q15303); assay: as above
T4 construct: Recombinant soluble extracellular domains of the four ErbB proteins (denoted IgB-1 through 4); made in house; host or cells: HEK-293 human embryonic kidney cells (conditioned medium)
T4 sequence (Q15303 26-651 limits assumed): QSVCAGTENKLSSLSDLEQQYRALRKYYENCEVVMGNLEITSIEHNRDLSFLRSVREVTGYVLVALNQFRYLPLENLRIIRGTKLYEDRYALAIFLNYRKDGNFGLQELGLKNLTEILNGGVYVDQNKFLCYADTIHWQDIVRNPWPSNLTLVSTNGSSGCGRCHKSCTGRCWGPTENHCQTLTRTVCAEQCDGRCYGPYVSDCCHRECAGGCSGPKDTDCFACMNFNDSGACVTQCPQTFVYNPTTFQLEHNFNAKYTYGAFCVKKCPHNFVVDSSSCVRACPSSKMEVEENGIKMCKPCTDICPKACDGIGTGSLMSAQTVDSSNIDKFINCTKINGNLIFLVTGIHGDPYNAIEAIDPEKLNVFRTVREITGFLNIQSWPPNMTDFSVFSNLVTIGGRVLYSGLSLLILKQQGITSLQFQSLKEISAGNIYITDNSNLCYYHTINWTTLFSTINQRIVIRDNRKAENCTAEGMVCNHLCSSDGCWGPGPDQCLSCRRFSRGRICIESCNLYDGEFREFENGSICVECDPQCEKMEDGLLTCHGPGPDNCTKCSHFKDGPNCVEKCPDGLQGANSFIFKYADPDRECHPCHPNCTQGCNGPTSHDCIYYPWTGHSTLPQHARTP
Procedure: as §1, §2, §3

[1] = molecular target: T5, ErbB-4 co-expressed with ErbB-1 (Homo sapiens, UniProt Q15303); assay: Covalent crosslinking to CHO cells co-transfected with ErbB-4 and ErbB-1
T5 construct: expressed in transfected cells; host or cells: CHO (Chinese Hamster Ovary) cells, transient co-transfection
Procedure: CHO cells were transfected with vectors directing expression of the indicated ErbB proteins or their combinations. Two days later cell monolayers were incubated with either ^125I-NRG-1β or ^125I-NRG-4 (EGF-like domains, each at 100 ng/ml). Following 2 hours at 4° C., the covalent crosslinking reagent bis(sulfosuccinimdyl)-suberate (BS^3) was added (1 mM final concentration) and cell extracts prepared after an additional 45 minutes of incubation. The indicated ErbB proteins were then immunoprecipitated with mouse monoclonal antibodies, and the complexes resolved by gel electrophoresis and autoradiography. Arrows mark the locations of monomeric (M) and dimeric (D) receptor complexes.
Growth factors were labeled with Iodogen (Pierce) as described (Karunagaran et al., 1995). Chemical crosslinking to Chinese Hamster Ovary (CHO) cells engineered to express different ErbB combinations have been performed essentially as described (Tzahar et al., 1996). Briefly, radiolabeled ligands (at 100 ng/ml) were incubated for 2 hours with cell monolayers at 4 C. […] Non-specific binding was determined in the presence of a 100-fold molar excess of the unlabeled ligani. Cells were then washed, lysed in a solution containing 0.1 M NaOH and 0.1% SDS, and radioactivity determined by use of a gamma counter. […]

binding to IgB-1 (covalent crosslinking signal) (IgB-1 (soluble ErbB-1)): low or no binding
binding to IgB-2 (covalent crosslinking signal) (IgB-2 (soluble ErbB-2)): low or no binding
binding to IgB-3 (covalent crosslinking signal) (IgB-3 (soluble ErbB-3)): low or no binding
binding to IgB-4 (covalent crosslinking signal) (IgB-4 (soluble ErbB-4); 125I-labeled ligand, BS3 crosslinking): only weakly
displacement of the radioactive ligand from IgB-4 by unlabeled NRG-4 (IgB-4 (soluble ErbB-4); unlabeled NRG-4 at 100-fold molar excess): efficient displacement
heterodimers of ErbB-4 with ErbB-1 ([1]; precipitation with anti-ErbB-1 antibodies): existence of NRG-4-promoted heterodimers
B1: NRG-4: synthetic refolded mouse EGF-like domain of NRG-4 (residues 4 to 50, SEQ ID NO:2) (peptide, listed as Mus musculus)
chain: MPTDHEQPCGPRHRSFCLNGGICYVIPTIPSPFCRCIENYTGARCEEVFLPSSSIPSESNLSAAFVVLAVLLTLTIAALCFLCRKGHLQRASSVQCEISLVETNNTRTRHSHREH
effect of ErbB-1 co-expression on the radioactive signal ([1]; CHO cells, ErbB-4 + ErbB-1): did not significantly affect the radioactive signals
